Sequences and labels used below:
B1: Pistol ribozyme (parent)
chain: GGGUCGUUGUUCCAUAAUCGCGUGGAUAUGGCACGCAAGUUUCUACCGGGCACCGUAAAUGUCCGACUGGAGCCGUUCGGGCGGCUAUAAACAGACCUCAGGCCCGAAGCGUGGCGGCACCUGCCGCCGGUGGUAAAAAAGAUCGGAAGAGCACACGUCU

83 variants from the RNAGym collection of RNA variant scans (doi:10.1021/acssynbio.7b00057) can be followed below.

In this series the parent is B1. Nature of the series: aptazyme ON/OFF ratio, guanine; higher = stronger switching; co-transcriptional cleavage with and without guanine.
For the variant U7C U8G U11G C12G C13G, the “aptazyme ON/OFF ratio” value turned out to be 1.08.
For U7C U8C G9A U10G U11A C13A, the “aptazyme ON/OFF ratio” value was found to be 1.1.
As for U7C U8A U10A U11A C12G, the figure is 1.2; as for U7A U8A G9C U10G U11C C12U C13A, 1.15.
With U7A U8C G9U U11G C13U the figure was 1.27.
As for U7C U11C C12A C13G, the figure is 1.28; as for U7C U8C U10G U11C, 1.39.
In the case of U7A U8G G9C U10C U11C C12G C13G, the “aptazyme ON/OFF ratio” value worked out at 1.08.
With U7A U8A G9U C13G the figure was 1.05; with U7C U8A U10A C12A, 1.3.
With U8C G9A U10G U11A C12G the figure was 1.14; with U7C U8G G9A U10A U11G C12G, 1.25.
On to U7C G9C U10A U11A C13U, for which the “aptazyme ON/OFF ratio” value worked out at 1.05.
As for U7C G9A U10G U11C C13A, the figure is 1.24; as for U7A U8C G9U U10G C13U, 1.24; as for U7C G9C U10C U11G, 1.07.
In the case of U7C U8G U10A U11G C12A C13G, the “aptazyme ON/OFF ratio” value is 1.13.
With U7A U8A G9A U10A U11A C12U C13A the figure was 1.17; with U7G G9A U10C U11C C12U, 1.07.
With U8C G9A U10C U11C C12A C13U the figure was 1.1; with U7C U8G G9C U10G U11G C12A C13U, 1.14.
With U7G U10A U11G the figure was 1.71; with U7C U8G G9U U10A U11A C12G C13U, 1.2; with U7A U8A U10C U11A C12G C13U, 1.12.
With U7C U8G G9A U10A U11A, the “aptazyme ON/OFF ratio” value is 1.31.
For the variant G9C U10G U11C C12G C13U, the “aptazyme ON/OFF ratio” value stood at 1.15.
With U7G U8A U10G C13G the figure was 1.32.
As for U7A U8G U10C U11C C12A C13G, the figure is 1.3; as for U7C U8A U10A U11C, 1.05; as for U7C G9U U11A C13G, 1.03.
As for U7A U8G U10A C12U C13G, the figure is 1.25; as for U7C G9A U10G U11A C12U C13U, 1.18; as for U7A U8A G9C U10C U11A C12A C13A, 1.02.
Regarding U7G U8G G9C U10C U11C C12U C13G, the “aptazyme ON/OFF ratio” value was determined as 1.23.
U7G U8G U11A C13G: the “aptazyme ON/OFF ratio” value stood at 1.24.
As for U8A G9A U10A U11A C12A C13A, the figure is 1.29.
As for U7C U8C G9A U10C C12G C13A, the figure is 1.28; as for U7G U8C U10A U11C C13G, 1.04.
As for U7A G9U U10G U11G C13A, the “aptazyme ON/OFF ratio” value was 1.22.
As for U7G G9U U10G C12U C13A, the figure is 1.28; as for U7G U8C G9A U10A U11A C12G C13A, 1.13.
As for U7C G9A U10A U11A C12U C13U, the figure is 1.19; as for U8G G9A U11C C12U C13G, 1.27.
As for U8G G9U U10G C12U C13G, the “aptazyme ON/OFF ratio” value came to 1.02.
As for U7A U8G G9A U11A C12U, the figure is 1.38; as for U7A U10A U11G C12G, 1.45.
As for G9C U10G U11G C12A, the figure is 1.18; as for U7A G9A U10A C13U, 1.29; as for U7G U8C G9U U10C U11A C13U, 1.79.
As for U7C U8A U10A U11C C12A C13A, the figure is 1.06; as for U7C U8C G9A U10G U11A C12A C13G, 1.2.
As to U7A U8A G9U U10C U11G, the “aptazyme ON/OFF ratio” value was found to be 1.33.
With U7G U8A U11A C12G C13U the figure was 1.21; with U7C U8A G9U C12A, 1.06; with U7G U8G G9U U10A C12A, 1.28.
With U7C U8C G9U U10A C12G the figure was 1.22; with U7G U8A U10A U11A C12G C13U, 1.46.
With U7G U8A U10A U11A C12G C13A the figure was 1.14.
For U7C G9U U10C U11C C12U C13A, the “aptazyme ON/OFF ratio” value came to 1.02.
As for U7C U8G U10G U11G C13A, the figure is 1.21; as for U7C U8C G9A U10G C12A C13G, 1.09; as for U8C G9A U10G C12G C13G, 1.11.
As for U7C U8G G9C U10A C13U, the figure is 1.15.
As for U8G U10A U11A C13U, the figure is 1.17; as for U8A G9C U10G U11C C12A C13A, 1.17.
As for U8A G9U U10A C12G C13A, the “aptazyme ON/OFF ratio” value worked out at 1.34.
As for U8G G9C U10C U11G C12A, the figure is 1.07; as for U7C U8C G9U U10C U11C C12G, 1.06; as for U7C U8C G9U U10C U11C C12A, 1.22.
As for U8A G9C U10G U11G C12G, the figure is 1.24; as for U7G U10A C13A, 1.13.
As for U7C U8C G9A U10C U11G C13G, the figure is 1.15; as for U7G U8G G9U U10C U11C C12G C13G, 1.12; as for U8A G9A U10A U11G C12U, 1.15.
Regarding G9U U10G U11A C12A C13U, the “aptazyme ON/OFF ratio” value was 1.37.
With U7C U8C G9U U11A C12U the figure was 1.25.
With U7C G9C U11C C12A C13U the figure was 1.05; with U7G U8A U10C U11G C12A C13A, 1.19; with U7A U8A G9U U10G U11G C13U, 1.17.
As for U7G G9A U10C U11A C12A, the figure is 1.1; as for U7C G9U U11C C12G C13G, 1.06; as for U7G U8A U10G U11G C12A, 1.3.
For the variant U7G U8A G9U U10A U11G C12U C13U, the “aptazyme ON/OFF ratio” value turned out to be 1.02.
